Consider seven variants from IntAct's records for PubMed 27065194.

B1: Protein BTG4 (Mus musculus), O70552 (parent)
chain: MRDEIATAVFFVTRLVKKHEKLSTQQIETFALKLMTILFEKYRGHWHPDCPSKGQAFRCIRINNNENKDPVLERACAESNVNFFHLGLPKEMTIWVDPYEVCCRYGEKKHPFTIASFKGRWENWELAQHVSCAVNRATGDCSSGTSSDEESCSREAQIIPKVNNPKSVYQVENFKQSLQPWFCLPRRKHLADGRGFLPGAACHPVPKSSKWCRPASRRVDRYHWVNAQLFSGQTAPGEPGEEALSSLKQK

In one experiment the parent is B1. Conditions: with cnot7_mouse Cnot7, Q60809.
cnot7_mouse Cnot7, Q60809, sequence (Q60809 whole entry): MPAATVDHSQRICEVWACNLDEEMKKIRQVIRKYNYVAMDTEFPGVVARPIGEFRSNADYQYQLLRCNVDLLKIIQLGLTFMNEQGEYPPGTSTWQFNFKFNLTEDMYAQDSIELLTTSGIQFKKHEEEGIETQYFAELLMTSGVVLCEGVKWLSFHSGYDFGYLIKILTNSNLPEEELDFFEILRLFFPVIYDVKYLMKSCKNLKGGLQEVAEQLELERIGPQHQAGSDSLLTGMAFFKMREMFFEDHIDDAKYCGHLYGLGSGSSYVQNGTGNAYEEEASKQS
For D69A, the “effect of a mutation on the interaction” value is “disrupting interaction strength”. Take E107A: the “effect of a mutation on the interaction” value was “disrupting interaction strength”. Turning to C59A, the “effect of a mutation on the interaction” value is reported as “decreasing interaction strength”. For the variant R58A, the “effect of a mutation on the interaction” value is on record as “disrupting interaction strength”. Take H45A: the “effect of a mutation on the interaction” value is given as “disrupting interaction strength”. W95A: the “effect of a mutation on the interaction” value was “disrupting interaction strength”. The same measure, in the same setting: with W46A the entry was “disrupting interaction strength”.

A further experiment covers variants of B1. Conditions: with cnot8_mouse Cnot8, Q9D8X5.
cnot8_mouse Cnot8, Q9D8X5, sequence (Q9D8X5 whole entry): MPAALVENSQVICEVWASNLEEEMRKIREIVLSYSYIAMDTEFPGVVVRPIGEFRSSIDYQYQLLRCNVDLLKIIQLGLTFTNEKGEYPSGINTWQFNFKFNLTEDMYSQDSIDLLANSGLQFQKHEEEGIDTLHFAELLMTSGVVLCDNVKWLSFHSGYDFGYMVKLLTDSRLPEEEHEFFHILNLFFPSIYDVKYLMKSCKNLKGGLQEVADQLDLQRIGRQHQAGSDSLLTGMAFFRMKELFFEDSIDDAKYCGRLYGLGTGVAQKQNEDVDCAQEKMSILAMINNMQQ
W95A: the “effect of a mutation on the interaction” value is listed as “disrupting interaction strength”.
